The data set relates to HupA (HU homologue) (Streptomyces coelicolor). Nature of the data set: EMSA (agarose). To be noted: Buffer B: 50 mM NaH2PO4 pH 8.1, 300 mM NaCl, 10% glycerol, 0-40 uM HupA, 120 ng (3.6 nM) pUC19, 3 min room temperature then 15 min 37 C, 1% agarose in TAE …. A general note: Mobility shift assays separate free from complexed probe on a gel.

pUC19 negatively supercoiled displayed a binding (bound at 15 uM HupA, 3.6 nM plasmid, 300 mM NaCl) of 15 µM.

The substance “pUC19 relaxed by E. coli topoisomerase I” registered a binding (relaxed by E. coli topoisomerase I (NEB), enzyme inactivated at 65 C) of 40 µM.

These data come from article PMC9756944.
